Test results as given in the DeepSol protein solubility set.

Test: soluble on expression in E. coli; label from the status in PepcDB or PDB records

| Sequence | soluble on expression in E. coli |
| --- | --- |
| MAHHHHHHMPARGCAPVDEQIAGTDTEGRRYRSVEEMWGRELQGNLYDAKTGWYGKSLQYWGSVPATVSGVLGGMDHVHDIDIRDSRAFICCLPERGTTRALDCGAGIGRITKSLLCHLYDVTDLLEPVASMLEKAKEELEGFPVGDFFQSSMETAKLQPKTYDLIVIQWAAIYLTDEDFVAFLVRCKEALTPKGYIFFKENCASDDEFIVDKEDSSLTRSDKHYKRIFAAAGIEVVKEAMQGDWPDDLLKVKMYALR | soluble |
| MAHHHHHHMPFNREILAAISFESGPLSSAEIAARRTPTEEPPKNLEVKSCDKRDEPRQNEATINLIRCMKWALGQSITSISHPAKQRPLNPKRDFSIKTKINLDVGVEKPKPGFCCSTAAATGVREQRNHHAPFYDAHGDSEEASHLDESDVESHDEVPNVPLAFVDYSPMCYRHIREFFNIDHRAYRDVLLRSRWHSTPTPGKSAAQLFFCGRDWVIKTMTHEESKFLRRILHRYYFFVLDHPYTLLPHFVGHHRLEINGEKMYIIIMQNVFVTGNTIHEKYDLKGSTVGRFATEAEKKKQTCTQKDLDINRPLHVGATRRNLLIEQMKMDCGFLNQCNIMDYSFLVGIHVLPMYEAHRPAPSTGSREYLGGAAALATSALEPSYLLGMGETMQPMALNGHPTAAADSAPTDGRCFKADQGGMMSADHPGGRREIYYIGIIDILQEYNSRKSMETLVFGMLKDRQKISAVPPKEYAARFVSFVSSIIV | not soluble |
| MAHHHHHHMPLIEAHLPALRPYIRYPVVAATGSFDVGRLQQYATVCPATYVIETITEALAELTRRMKWSFDLCGNFRDAADFAARGISFVALERATGNIAAGASSFCICDGGVEVGVETAESHQRRGLALACSARLILERLKHGLYPNWDAHVPHSAHLAEKLGYTRGTPYKAYVDELQT | not soluble |
| MAHHHHHHMPPKGQRSLNIAQPLSSSRAQSANAILRSAASAMATSGPAASKSSPRTSCFPRAFMSTGNARNEMEAYYEQLLSQDRVDGVDAFGKNGIHLLCKGLGIKPESFEMYTLIWKMGVTRGCCIPRADWLKTIYTYKIEQPMDLKLVLVEWVKESRGDSFTEFYNDLYDYIRGEEARLMPYGTAVEAWAVLFQNEPRIIPWIKWYSDIYRREVTRDVWRQIGIFLSAVPNIEAYNVEDRWSCAIDSYVEWCKVSG | not soluble |
| MAHHHHHHMPRIEISKDVKLTIMSYNIQMLSIPFSVHLNSWTRRNAIIDYICSLDDIYDIDILVLNEVFTKKCYKLLTSGKIKEKFPYHTNVIGRNYKRHDNYNDSSSSTGQKDGLSFHSSDTNINIESSRGISNYVSEQMEYIRKNKENHKNKLSKISEDISENSNSSYNSNFDTITGKRKFFHFVNGGVIVLSKHKILHKHALIYSSGKFPDVFCSKGAIYLKCDVMNKKVNVVATHLQAGDNKEQQKCRWKQIDELSKWVYEGIPSTFIKKFESLFFVGDFNIRYNADRLFLDKVLSDNYLNSYVTKKSLDTTYDSFLNDYCRYIERDYNYKHKYTLDYILVANNSNVEIIVPQTSIQNYYKSLYFIKFFLGIIPYKTTYIHHPSDHFPIYATFLILS | soluble |
| MAHHHHHHMPSFFPSMPPCDRAAMLTVCEARRQYLAAHVTQLYANTNPAELWSSIVKYRERNSTELLDTVNSYDELRLSYSGYRKVVYSLVFRVSPEEEKQASVEERESRKKLYFNHPFLSPATFLAFPRAEDGTIPAVPMYAFAAKRLLLYRMRVELELVARVLPPSLQDPATRVTHRLLCPPSSSSPLSNGLTQEDIEAFLYDLLPNLRLVRDMPPWMQPYYLCHASRKFMFMCDTRRTGAISIESMMKSDVFSELLRVFESDANDAIVVFTKGCTVDVAASLVTADAAEDDTIPALVLFHEGEGNNQDDMYIVKTLTDGVVLEVRRGQLYWNSGSTEFLQPDVLCMDNWFSLALMARIYEHFTSLDIDGDGVLTVDELSRYSDGSFTRLVIERAFECHVPHSGKRHIMDYKTYLDFVIATEHAATLPAMKYIWSILDLEENRKFVTVETLRCFCKAIANELIANGLMTDISAQSILSEVIDMINPKWHEWVELDDIVRSGHQATVLPILLSYRNFYAYDCREQTAAAANDEYA | not soluble |
| MAHHHHHHMPSMTSLLHKSLVVCFTSRISIFTSRPARGTAASAQLSLSSVPTAEHLECWTRQGDCVVGREEVACASCLGGYLAAGTISGLVLLYFCGAAESLVKELVRFNVGYGVTGMQLLPNDTLLVVTSVGDVWRWPLCDLLRNADASGAEGEKDEATEAEPTAAAHQPPLPLAAPRVPAAPSPQDKTLHTEPRVPATPEEVSYTQEGDTEDRSFSAHDTSTLAHTPQREREATARVEEIVTAVRVGADVPLVGARSDAEEQGTPSVHLSTASASLRALSASSENDGDEDHPDERGNDNTDMDARRAEPATVSCLPPPPPLASPTVSDKFEEKRGVGGVTRCATEFQRRTLYDPEQSTEEPGVVDMGVPSSAAGNSADLSHDGLRIAVSPPSTADNTAHHDAVLEDSGADVPEVAARGSAAGAAAVAAKEGTISDKHIQPFQRNHGDLSDTADVAQGTAHSSPGITSRQGTGMKAAVDDLEHEFAHAMKRLLGPTVGVEGLRKDRRMNPRKVAGVLANLTNQQAAAAGAKGLSYEAPSQPRALEGPNSTKLLEEKRTTLEAAVFDFEAYRQAHRLEVDALQYHHPVPAPTYTLQDRVFDAVESAGRLCDKEAGRATGAAGNAAATLPAAPEDELRDVTYGKVKWTLDPQIAEERRRGGPEMAQHHCDHLIFSTPYPAKATVLFAEEAPLMPSTAWEEVLLLPLPLPPAPSVF | soluble |
| MAHHHHHHMPSSSKKQNVVTFSEVHDPLYGMLSPLSPSPLVVRHVQYPSLHHYFLCERFKGSPAEQWMAEATTVWSLERLVKTAEEEGYQRHNWNKVKVDVMLLGTYFKFKQNEAARAVLLSTQPSLLLYHTPTDDFWGDGGDGKGKNVLGVVSMAVRARLHSEEERQKQRPPASGRHSKSAAAKSPALPATRT | soluble |
| MAHHHHHHMPSSSPLLGPVFEVITPRLWVRYLQRYLDVPELLTLSETCWTFFVRCNEEPLWRELCLRPPYIDVQQKLGLFTFRGSWKYTVCAYRAEGAGADRQSSRSSTVVLAQSRSIADASLRFNVLLPRIVSCLQVSGEMSSDDGAAWMSQLRSPCAAGTGAASEVSVGLDNGRDEGAAEATVGAEMSVGAWQENVLGKPYAPTLAVKYLSLSAGAINYFMRDGTFLRPPLHALRQPQHRLVRPHTEFTDYNWYGTCLLDLVPLPQWCTNAQFFATLRWKTSGNTRRLQCCGHATAALDDTGGVRGPSHLPDELRGVPGVVDRRYRLSVDAFQREYEVPNMPVVLTGCIEDWPARDTWQDIHFFHCFASEALRANGRTADGRRFRMSAADYLAYEVATNAEKPMYVFDKAALQRSTALRADYAIPPYFTEDFFSYMTEEDRPDYRWLLVGPDGSGSPFHTDPHGTCAWNAVLSGCKRVTLYPPHVVPPGVEEEWIHSDYYASEPCLRWYRTRGDSMPSGSAVCGTFSKEHAGEAYHGSARELPPVEALVFPGDLVFIPSGWWHQVLNIGHTVAVTHNLCSPLTFPRVVADMNAYADRTVRKRFQCALRRAGRDELAVQLRVPGAKRGVYAGHLL | not soluble |
| MAHHHHHHMPTASASREPLVPSINFSMVCPGVYRSGYPTKKNYSFLCALRLRSILYLCPEDYAESNLKFCEENGIHVLRFPTEGNKEPFCDVSEPLMHRILSAICDTRNLPLLIHCNKGKHRTGTVVACLRHLQGWSLVSIFEEYKRFASDKARVGDQQYVELYHPIVKLTPPFVALWVTVTPRVTLVTSDRELMEAEAMQLGYSLLAPDKHLMKNGSSTNKSTAPTAAAASGAASVTAAPAAAAAATAGSGPTVAVSTSGPSAAGAMQQQQPSQPVTSAASASASNSGHSLAPSLMATAATPAAADR | not soluble |
| MAHHHHHHMQAITASTPSQQYSVGAGIEKPLGVTTSADWMTMYERKPHGNSTLFELEAMVAKRMEFLAWVDQQINSPQAKNFDSVLDAIIARLPEERRSSAATDGSRVKMISLGYDETAAGGCSDRRSSSRGSTGSAAGANQAASIVFAPEEDVTSHLLCRFAFCMSERWRDWLVRTERVLLTARIKMEMAKRPFTFLVDLMKRNGLPCAPLTDKQLADPMLQEYLEYRRVKAESARESEGRVENYYAVPLSLATRLIKKRYVLCRAGQAILFRDQVQEVFLTVFCARLNRGLHNAYLARVKQQALEEETAKSTVMAMLDAFLQQFISDPVDTLQEGVAGSVRARDVQRLAQAHFPPCMRAIDWHLRREGHLKHHGRFMYGLFLKSIGLSLEDSLELFATLMKVKGGGSVEAFAKTAYGYNVRHNYGMEGKKMSYSSASCATILGLPPVVDQHDCHGCPFRFRDEGALRTMLGKETENPKGCDYPSVRPTPGDIEDIVSDSKAQHYTRACYKYFMATHPGARRDTLFRSPYEYYSVSLEFETPSDGTESARPSAVPGKRTSVVLNEDVLRFRTSP | not soluble |
| MAHHHHHHMQFHQFLCRFRNQVLLKGAFWSCPHQFRLGLHDRWKVNLVKVHIGVLGFFFKTHGESVVSGAKGDNLHGCRNGGVSALKVTNAFLNKIRNDQHTQIVPTIYQRGTPRQLSHEMSKIRILKVPMEHRRAFAHDTVIVSTLHRSVKTDVRGDTHRGTVLLHWKMHCLR | not soluble |
| MAHHHHHHMQPRHFHVCNFLLTCSCERGHPRVRCLRFAALRFAKPHFALLCRTSLCFFFATPTRAELATDGLKGRIYEVNLADLNNDEDQAHKKIKLCCDHIINKDCYTDFCGLSITRDKLCSLIRKGYTLIEGYTDVKTIDNYQLRMFCIAFTKKRPNQTKTTCYAQTSQIKKIRKKMVDIMNAEASKVMLKDLVKKFIPESIGKEVEKQCKKIYPLQNVLIRKVKILKRPKLDISKLMELHTDSKEDAGKNVKSLPESKEATNILSAELKH | soluble |
| MAHHHHHHMQSSALRPSSLLRAYHYVHPKTGRPIRQYRKYGDPRFINNEVALIKGLFALITTDFGMVTQSQLENARLAILRRMPRGSFALTMHTDYEEFPVVQKSPESRMGAGKSNIHHFAYKFTTGVPLFEITALSSRRLNQAEAEGIFLAGRSFIPLQTAVVPRGRVDEYHVFK | soluble |
| MAHHHHHHMRARRSCKFAEYLSTYAILEHIGIHPTTLIEKRDAAVGVGVYVRDACDAGTALLAVPSKRFCTTSVLSRVGLKTSFCSPWRADSEVPSTAFAGPTCDVQGGILSFLTGSTQWPELAWRLALEQHRSVSPLWGWLQSLPSVEELADRRDVAERQCRVHHTMLLPYYLKGRQRIREETVAAYSQLRAQNILPCFDRFAWAVDVVLSRGLLLPTAWPTAGGVFTNSTTDGEHEEEDSDPLPHTSLECGVVPFLDLVNAPDDVGRVVNADIEIATSLETLPKFLTDELAADATARGRGGDDLAEVKRLLETHYYLCLTLRKPLRASEEVILEWQVPVLTTEVLTAAEDAIVSRFLKYMF | not soluble |
| MAHHHHHHMRHSTYVEVCLRNIAYNVECIRRIAGKAELIPMVKGNAYGHGMGKVSEYLHNVCGVHTFGVASLGEALELIESQPSIAEKAQNEIFVFSDTEVLNEGCQSYYQPCGRWAVRLTPILGTLPQLKAFCASNAFNNTKLCLKLETGMNRLGLRFDELEEAVPILKQRGGVDLLLQHFGIAGSVERLAETLNHYEAFKNAKKFLHDSGVEVRATSVSNSGAVEQRIGLEETYIRPGIMLYGPRSVTSKNLWNGKFASCFYTKVLHHFPLRKGEGVGYDLTPVKADSVIVMLPIGYADGFLCTYKGMPIKVTPEDAAEPIIGTVHGRINMDMAAVVVYPEEVGKNIGNIMAAVKKESRIHVWGDDIEEKAVSVGAIPHQLTCGLSIRVPRIYM | not soluble |
